In the supplement of paper PMC9112550, “Optimization of the antimicrobial peptide Bac7 by deep mutational scanning” (BMC Biology, 2022):

Tested on: Escherichia coli TOP10
Experiment: shrunken log2 fold change of peptide-encoding DNA abundance (4.5 h post-induction vs induction); higher = less antimicrobial activity (less host growth inhibition)
Details: time post-induction: 4.5 h; library: site-saturation at positions 5, 18, 19, 20
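Also: peptides expressed intracellularly from a pBAD plasmid library in pooled LB shake-flask culture, induced with 0.3% L-arabinose, DNA abundance read by NGS, three biological replicates, DESeq2 with apeglm shrinkage.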

| Sequence | shrunken log2 fold change |
| --- | --- |
| RRIRWRPPRLPRPRPRPYSSPRP | -1.07 |
| RRIRHRPPRLPRPRPRPGSVPRP | -0.31 |
| RRIRCRPPRLPRPRPRPRIPPRP | -0.00295 |
| RRIRIRPPRLPRPRPRPESTPRP | -0.325 |
| RRIRGRPPRLPRPRPRPNYDPRP | 0.134 |
| RRIRKRPPRLPRPRPRPEATPRP | 3.17 |
| RRIRQRPPRLPRPRPRPPQVPRP | 1.3 |
| RRIRMRPPRLPRPRPRPRFEPRP | 0.36 |
| RRIRWRPPRLPRPRPRPDCPPRP | 0.0548 |
| RRIRQRPPRLPRPRPRPVHWPRP | 0.188 |
| RRIRFRPPRLPRPRPRPDFTPRP | 0.138 |
| RRIRQRPPRLPRPRPRPTPEPRP | 0.0617 |
| RRIRNRPPRLPRPRPRPNKVPRP | -0.642 |
| RRIRFRPPRLPRPRPRPSFNPRP | -0.792 |
| RRIRRRPPRLPRPRPRPKHVPRP | 0.19 |
| RRIRARPPRLPRPRPRPTYAPRP | 0.2 |
| RRIRIRPPRLPRPRPRPWPSPRP | 0.193 |
| RRIRCRPPRLPRPRPRPWCDPRP | -0.211 |
| RRIRMRPPRLPRPRPRPRAWPRP | 0.32 |
| RRIRVRPPRLPRPRPRPPQKPRP | 0.23 |
| RRIRARPPRLPRPRPRPYMMPRP | -1.22 |
| RRIRNRPPRLPRPRPRPMNQPRP | -0.123 |
| RRIRPRPPRLPRPRPRPYMCPRP | -0.714 |
| RRIRIRPPRLPRPRPRPHAEPRP | -0.217 |
| RRIRRRPPRLPRPRPRPVHYPRP | 0.0593 |

| Sequence | shrunken log2 fold change |
| --- | --- |
| RRIRTRPPRLPRPRPRPRFPPRP | 0.115 |
| RRIRCRPPRLPRPRPRPVPMPRP | 0.998 |
| RRIRPRPPRLPRPRPRPFVSPRP | -0.443 |
| RRIRERPPRLPRPRPRPRTLPRP | -0.17 |
| RRIRYRPPRLPRPRPRPNGRPRP | -0.311 |
| RRIRGRPPRLPRPRPRPQRFPRP | 0.139 |
| RRIRVRPPRLPRPRPRPMVTPRP | -0.043 |
| RRIRSRPPRLPRPRPRPRFWPRP | 0.269 |
| RRIRMRPPRLPRPRPRPLCTPRP | 1.19 |
| RRIRERPPRLPRPRPRPHGLPRP | -0.161 |
| RRIRVRPPRLPRPRPRPCPMPRP | -0.0643 |
| RRIRLRPPRLPRPRPRPRVEPRP | 0.174 |
| RRIRVRPPRLPRPRPRPNCDPRP | -0.356 |
| RRIRFRPPRLPRPRPRPYVAPRP | -0.62 |
| RRIRNRPPRLPRPRPRPYQGPRP | -0.00804 |
| RRIRYRPPRLPRPRPRPCYGPRP | -0.211 |
| RRIRTRPPRLPRPRPRPVIQPRP | -0.202 |
| RRIRARPPRLPRPRPRPMFLPRP | 0.00213 |
| RRIRSRPPRLPRPRPRPAYVPRP | -0.137 |
| RRIRDRPPRLPRPRPRPFCYPRP | 0.0322 |
| RRIRCRPPRLPRPRPRPYVDPRP | -0.232 |
| RRIRSRPPRLPRPRPRPRWDPRP | 0.197 |
| RRIRWRPPRLPRPRPRPTFFPRP | 0.312 |
| RRIRTRPPRLPRPRPRPLSAPRP | 0.369 |
| RRIRGRPPRLPRPRPRPLQTPRP | 1.59 |

| Sequence | shrunken log2 fold change |
| --- | --- |
| RRIRFRPPRLPRPRPRPNGPPRP | -0.0934 |
| RRIRPRPPRLPRPRPRPVSFPRP | 0.0766 |
| RRIRKRPPRLPRPRPRPYQWPRP | -0.143 |
| RRIRKRPPRLPRPRPRPLPTPRP | 0.491 |
| RRIRLRPPRLPRPRPRPNHWPRP | 0.0994 |
| RRIRTRPPRLPRPRPRPKEQPRP | 0.0592 |
| RRIRHRPPRLPRPRPRPTFNPRP | -0.612 |
| RRIRIRPPRLPRPRPRPNQDPRP | -0.507 |
| RRIRMRPPRLPRPRPRPACFPRP | 0.421 |
| RRIRLRPPRLPRPRPRPVHGPRP | 0.0748 |
| RRIRHRPPRLPRPRPRPSHSPRP | -0.577 |
| RRIRCRPPRLPRPRPRPETGPRP | -0.0271 |
| RRIRDRPPRLPRPRPRPLGNPRP | -0.0332 |
| RRIRVRPPRLPRPRPRPGYEPRP | 0.232 |
| RRIRRRPPRLPRPRPRPLQMPRP | -0.133 |
| RRIRLRPPRLPRPRPRPFNRPRP | -0.00257 |
| RRIRCRPPRLPRPRPRPNNKPRP | -0.71 |
| RRIRARPPRLPRPRPRPIEDPRP | -0.0663 |
| RRIRERPPRLPRPRPRPFCHPRP | -0.0629 |
| RRIRRRPPRLPRPRPRPQWPPRP | 0.00418 |
| RRIRLRPPRLPRPRPRPFKPPRP | 0.2 |
| RRIRMRPPRLPRPRPRPCCWPRP | 0.787 |
| RRIRCRPPRLPRPRPRPDYGPRP | 2.76 |
| RRIRRRPPRLPRPRPRPQRWPRP | -0.0703 |
| RRIRHRPPRLPRPRPRPSQIPRP | -0.0599 |

| Sequence | shrunken log2 fold change |
| --- | --- |
| RRIRGRPPRLPRPRPRPEYVPRP | 0.244 |
| RRIRTRPPRLPRPRPRPMDEPRP | -0.219 |
| RRIRHRPPRLPRPRPRPPFIPRP | -0.483 |
| RRIRNRPPRLPRPRPRPPECPRP | 0.015 |
| RRIRTRPPRLPRPRPRPFKSPRP | -0.0217 |
| RRIRIRPPRLPRPRPRPTPVPRP | 0.234 |
| RRIRLRPPRLPRPRPRPLQHPRP | 0.212 |
| RRIRARPPRLPRPRPRPHHSPRP | -0.404 |
| RRIRARPPRLPRPRPRPCDCPRP | -0.21 |
| RRIRVRPPRLPRPRPRPHRKPRP | 0.164 |
| RRIRWRPPRLPRPRPRPEWWPRP | -0.0316 |
| RRIRIRPPRLPRPRPRPNVNPRP | -0.594 |
| RRIRCRPPRLPRPRPRPCCYPRP | -0.696 |
| RRIRNRPPRLPRPRPRPVNWPRP | -0.0184 |
| RRIRDRPPRLPRPRPRPYPCPRP | -0.112 |
| RRIRARPPRLPRPRPRPKLGPRP | 0.023 |
| RRIRYRPPRLPRPRPRPQKTPRP | -0.0404 |
| RRIRRRPPRLPRPRPRPNYEPRP | 0.0979 |
| RRIRKRPPRLPRPRPRPFTHPRP | 0.0159 |
| RRIRGRPPRLPRPRPRPAVRPRP | 0.312 |
| RRIRFRPPRLPRPRPRPQLVPRP | -0.117 |
| RRIRVRPPRLPRPRPRPLAFPRP | -0.221 |
| RRIRNRPPRLPRPRPRPSMPPRP | -0.139 |
| RRIRPRPPRLPRPRPRPAAPPRP | 0.467 |
| RRIRSRPPRLPRPRPRPIWTPRP | -0.254 |

| Sequence | shrunken log2 fold change |
| --- | --- |
| RRIRIRPPRLPRPRPRPQDGPRP | 0.0409 |
| RRIRARPPRLPRPRPRPSWCPRP | -0.207 |
| RRIRERPPRLPRPRPRPCCQPRP | -0.485 |
| RRIRDRPPRLPRPRPRPVYKPRP | -0.601 |
| RRIRCRPPRLPRPRPRPFTMPRP | -1.13 |
| RRIRRRPPRLPRPRPRPNRDPRP | -0.062 |
| RRIRGRPPRLPRPRPRPKHWPRP | 0.646 |
| RRIRRRPPRLPRPRPRPYCEPRP | -0.102 |
| RRIRCRPPRLPRPRPRPWYVPRP | -0.461 |
| RRIRCRPPRLPRPRPRPWGGPRP | 0.36 |
| RRIRGRPPRLPRPRPRPIHCPRP | -0.0922 |
| RRIRQRPPRLPRPRPRPNHFPRP | 0.189 |
| RRIRPRPPRLPRPRPRPAYNPRP | -1.01 |
| RRIRCRPPRLPRPRPRPWINPRP | 0.102 |
| RRIRERPPRLPRPRPRPKTQPRP | -0.102 |
| RRIRGRPPRLPRPRPRPEHAPRP | 2.78 |
| RRIRERPPRLPRPRPRPNDCPRP | -0.0231 |
| RRIRNRPPRLPRPRPRPQQPPRP | 0.0468 |
| RRIRHRPPRLPRPRPRPQLWPRP | 0.0534 |
| RRIRFRPPRLPRPRPRPEDCPRP | 0.121 |
| RRIRHRPPRLPRPRPRPPDKPRP | -0.112 |
| RRIRERPPRLPRPRPRPPYFPRP | -0.441 |
| RRIRHRPPRLPRPRPRPRNHPRP | -0.481 |
| RRIRMRPPRLPRPRPRPVVSPRP | 0.095 |
| RRIRRRPPRLPRPRPRPPSYPRP | 0.26 |

| Sequence | shrunken log2 fold change |
| --- | --- |
| RRIRDRPPRLPRPRPRPLWWPRP | 0.721 |
| RRIRQRPPRLPRPRPRPYSHPRP | -0.0388 |
| RRIRSRPPRLPRPRPRPLHWPRP | 0.197 |
| RRIRLRPPRLPRPRPRPDMQPRP | -0.0583 |
| RRIRDRPPRLPRPRPRPLLDPRP | 0.17 |
| RRIRERPPRLPRPRPRPENQPRP | -0.174 |
| RRIRRRPPRLPRPRPRPTQWPRP | 0.183 |
| RRIRRRPPRLPRPRPRPGCKPRP | 0.12 |
| RRIRTRPPRLPRPRPRPPCVPRP | -0.121 |
| RRIRIRPPRLPRPRPRPIVAPRP | -0.119 |
| RRIRVRPPRLPRPRPRPLDRPRP | -0.117 |
| RRIRFRPPRLPRPRPRPLLNPRP | -0.549 |
| RRIRFRPPRLPRPRPRPLDRPRP | 0.163 |
| RRIRKRPPRLPRPRPRPSIEPRP | 0.0829 |
| RRIRVRPPRLPRPRPRPAQMPRP | 0.126 |
| RRIRNRPPRLPRPRPRPWLEPRP | -0.00992 |
| RRIRQRPPRLPRPRPRPVRMPRP | 0.149 |
| RRIRDRPPRLPRPRPRPIWMPRP | -0.00247 |
| RRIRLRPPRLPRPRPRPQKMPRP | -0.0278 |
| RRIRGRPPRLPRPRPRPNPHPRP | 0.216 |
| RRIRKRPPRLPRPRPRPKQCPRP | 0.0637 |
| RRIRCRPPRLPRPRPRPSWSPRP | -0.263 |
| RRIRERPPRLPRPRPRPQWNPRP | -0.33 |
| RRIRHRPPRLPRPRPRPCQLPRP | -0.0748 |
| RRIRHRPPRLPRPRPRPQAWPRP | 0.00326 |
